According to the RNAGym collection of RNA variant scans (doi:10.1073/pnas.2313332121):

B1: TPR t1 (parent)
chain: GACCAAUCUGCCCUCAGAGCUCGAGAACAUCUUCGGAUGCAGAGGAGGCAGGCUUCGGUGGCGCGAUAGCGCCAACGUCCUCAACCUCCAAUGCAUCCCACCACAUGAUGAUGCCUGAAGAGCCUUGGUUUUUUG

Variants of: B1
Test: polymerase ribozyme fitness, log enrichment relative to wild type (log ratio); higher = more active; in vitro selection for triplet polymerase activity
How it was run: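 Mutant libraries for each subunit of a heterodimeric triplet polymerase ribozyme were made by PCR and then transcribed. Each library underwent one round of in vitro selection in triplicate: annealing with a biotinylated primer, the partner subunit and triplets, frozen incubation at −7 °C, gel excision of extended constructs, streptavidin-bead capture and RT-PCR. Input and output libraries were Illumina-sequenced, and only genotypes with ≥10 input reads and ≥1 read per output were kept. Fitness is the logarithm, base 2, of genotype enrichment over wild-type enrichment, computed from inverse-variance-weighted replicate averages.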

Variant	polymerase ribozyme fitness (log ratio)
A43C G47U G52A C56U	-4.62
A43G A50G G60A	-4.16
A43C G117C	-4.86
A43U C115A C124U	-0.864
A43U C102U	-3.44
A43U C53U C72A A91U A105G U106A U125G	-2.96
A43C G48A	-2.56
A43C G63A U78C C104A G120C	-6.92
G44A G51A C80U C86A C124G	-0.462
A43U G61A C73A C88A G93A A121U	-2.52
G44A G48C C102U C124A	-1.74
A43C C76U A91C G93C U112C G113U U116C	-6.51
G44A	-0.794
G44C	-0.805
A43U G60U C123G U132G	0.532
G44A G45U G93A	-3.07
A43U C73G C85U C98G C115U	-7.11
A43G A50G G63C	-3.02
A43C G69U C99U	-3.77
A43U C88A	-1.18
G44A C56G C76A C86A	-2.93

Variant	polymerase ribozyme fitness (log ratio)
G44A G61C U78C C79G U112G U133G	-3.14
A43U G120C U132A	0.0679
A43U U92C U112G	-2.71
G44A U55A C85G G113A	-3.2
A43U C123A	-1.02
G44A C49U U54G U59A G61A A119G	-7.24
A43C G47A C56U G57A C62U A103C	-6.45
A43U G47U G61A C72G C97U	-2.63
A43U C62G C82A C101A C123G	-4.38
A43C C88U G93A	-1.96
A43U U78C G93A	-1.95
G44A C53A	0.047
A43C C85G	-3.37
A43G U59A C99U	-6.09
A43U U54A U112A	-0.639
A43C G47A	-4.53
A43G C70G G110U	-5.99
G44A C86G U96A	-3.83
G44A C56U A84C G120C	-0.295
A43U C114G	-3.27
A43C G69A C94G	-7.62

Variant	polymerase ribozyme fitness (log ratio)
G44A G48C G60U	-0.957
A43C U92G C101A U132A	-4.9
A43G C56A G57U U59C A84C C86U	-3.81
A43U C72A C114U G128C	-5.92
A43C G52A	-2.92
G44A G60C A111U	-5.02
A43C U87G	-2.73
G44A G63A A111C G122A	-5
A43U U112G G127U	-2.19
A43U G45A C56A	-1.86
A43C G61U C64G A121G	-6.23
G44A G47U	-2.36
G44C C53U G61U C124U	0.752
A43U C49G G135U	-3.89
A43C U129A	-3.98
A43G U112A	-0.27
A43U C73U C123G G127C	-1.76
G44A U112A	0.126
G44A A66U C76A	-4.64
G44A C99A C114A	-5.96
G44A A75U	-1.11

Variant	polymerase ribozyme fitness (log ratio)
G44A U129A	-1.83
A43C G58A U78A C114A	-5.29
A43U C76A C85G G120A U130C	-1.34
G44A C80A C124A	-3.54
A43U A46C C115U U116C	-2.39
A43U G48U C56G U116A	-6.74
G44A U55G G63C	-0.567
A43U A74G	-1.55
A43U U54A A66U U112A	-3.74
A43G U133G	-1.7
A43C G61U C82U C104G C123A	-7.32
G44A U130C	-0.447
A43U C62G U112G G113C G122U	-6.69
A43U G48U U54C C89U U112A	-0.663
A43U G47C G113U	-3.6
A43C U87A G110A	-5.45
A43U G48A A100C A111G	-5.16
A43U C88U A95C	-2.51
A43G A50G C70A C101U	-5.22
A43C C72U A103U U125A	-6.47
A43C C85A C104U G113A	-2.96
